According to publication PMC7330677:

Assays:
[1] = target: CXCR4-FlAsH228 (human) (UniProt P61073)
[2] = target: Human CXCR4 (human) (UniProt P61073)

## Recombinant human CXCL12 (from UniProt P48061 22-93) (ligand)
[1]
  EC50 of CXCL12 for Gi1 activation, one representative experiment of Fig. 1D: 14.7 nM
[2]
  EC50 of CXCL12 for Gi1 activation, one representative experiment of Fig. 1D: 3.3 nM
